# Test results as given in patent US20170233490A1 (Hoffmann-La Roche, published 2017).
# T1: HER4 ECD-HRG complex (human, UniProt Q15303 26-651)
# T1 construct: HER4 ECD preincubated with a 5-fold molar excess of Heregulin
# T1 sequence 1: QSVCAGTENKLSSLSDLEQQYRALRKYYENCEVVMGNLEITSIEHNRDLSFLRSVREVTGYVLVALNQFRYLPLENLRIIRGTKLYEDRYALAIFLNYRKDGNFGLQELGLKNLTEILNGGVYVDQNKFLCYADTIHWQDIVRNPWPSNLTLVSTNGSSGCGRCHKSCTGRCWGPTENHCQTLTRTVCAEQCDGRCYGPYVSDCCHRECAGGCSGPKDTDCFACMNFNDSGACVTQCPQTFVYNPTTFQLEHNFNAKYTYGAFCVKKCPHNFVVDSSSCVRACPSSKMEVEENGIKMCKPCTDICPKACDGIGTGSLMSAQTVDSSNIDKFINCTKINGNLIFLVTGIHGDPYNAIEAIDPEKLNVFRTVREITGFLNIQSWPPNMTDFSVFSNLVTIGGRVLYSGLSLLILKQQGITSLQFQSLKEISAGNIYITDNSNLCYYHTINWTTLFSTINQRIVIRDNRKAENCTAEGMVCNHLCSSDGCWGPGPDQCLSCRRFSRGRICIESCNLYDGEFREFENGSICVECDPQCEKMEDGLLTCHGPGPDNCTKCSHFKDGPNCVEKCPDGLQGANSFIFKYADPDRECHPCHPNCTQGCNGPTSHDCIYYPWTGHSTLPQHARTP
# T1 sequence 2: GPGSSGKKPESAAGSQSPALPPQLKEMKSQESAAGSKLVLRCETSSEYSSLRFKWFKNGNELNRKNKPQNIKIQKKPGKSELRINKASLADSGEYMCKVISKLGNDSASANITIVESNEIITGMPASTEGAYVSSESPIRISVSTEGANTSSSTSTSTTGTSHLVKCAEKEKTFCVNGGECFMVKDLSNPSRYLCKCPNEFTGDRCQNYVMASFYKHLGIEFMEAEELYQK
# T2: TtSlyDcas
# T2 construct: scaffold without hairpin insert, negative control
# T2 chain: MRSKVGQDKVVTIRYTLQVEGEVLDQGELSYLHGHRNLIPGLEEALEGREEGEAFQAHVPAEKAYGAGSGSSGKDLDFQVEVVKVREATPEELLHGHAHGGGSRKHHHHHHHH
# T3: human HER4 Extracellular Domain (ECD) (human, UniProt Q15303 26-651)
# T3 construct: also called Her4 ECD; HER4-ECD
# T3 sequence: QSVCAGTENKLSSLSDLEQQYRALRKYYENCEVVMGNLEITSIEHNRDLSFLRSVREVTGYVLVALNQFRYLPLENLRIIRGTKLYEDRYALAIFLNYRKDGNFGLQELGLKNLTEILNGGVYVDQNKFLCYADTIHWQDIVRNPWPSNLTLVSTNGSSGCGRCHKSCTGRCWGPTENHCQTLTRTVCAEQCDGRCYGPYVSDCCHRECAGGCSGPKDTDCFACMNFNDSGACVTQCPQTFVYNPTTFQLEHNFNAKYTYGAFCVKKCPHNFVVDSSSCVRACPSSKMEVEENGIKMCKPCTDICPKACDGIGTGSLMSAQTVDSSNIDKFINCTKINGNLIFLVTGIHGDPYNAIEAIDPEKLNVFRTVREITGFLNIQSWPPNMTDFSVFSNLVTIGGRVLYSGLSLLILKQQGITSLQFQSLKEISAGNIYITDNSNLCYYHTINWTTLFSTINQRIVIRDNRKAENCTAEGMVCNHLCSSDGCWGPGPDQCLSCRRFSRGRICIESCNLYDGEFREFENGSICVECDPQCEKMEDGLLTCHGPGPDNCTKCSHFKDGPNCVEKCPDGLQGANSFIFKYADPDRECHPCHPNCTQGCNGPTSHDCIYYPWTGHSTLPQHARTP
# T4: TtSlyDcys-Her3
# T4 chain: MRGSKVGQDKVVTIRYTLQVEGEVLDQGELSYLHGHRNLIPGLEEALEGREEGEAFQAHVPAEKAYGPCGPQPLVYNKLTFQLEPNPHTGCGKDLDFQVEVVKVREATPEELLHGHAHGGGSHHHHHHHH
# How the values were obtained:
# HER4 ECD-HRG complex [1] = biological target: T1, HER4 ECD-HRG complex; experiment: SPR Biacore T100; reference: HER4-ECD without Heregulin
# HER4 ECD-HRG complex [2] = biological target: T1, HER4 ECD-HRG complex; experiment: SPR Biacore T200, antibody captured, 25 C
# Description: (§1) A Biacore T200 instrument (GE Healthcare) was mounted with a CMS series sensor. The sensor was normalized in HBS-ET buffer (10 mM HEPES pH 7.4, 150 mM NaCl, 3 mM EDTA, 0.05% w/v Tween 20) according to the manufacturer's instructions. The sample buffer was the system buffer supplemented with 1 mg/ml CMD (Carboxymethyldextran, Sigma #86524). The system operated at 25° C. 6500 RU RAM-Fcγ (relative units of Fcγ-fragment RamIgG, GE Healthcare) were immobilized according to the manufacturer's instructions using amine coupling EDC/NHS chemistry on all four flow cells. The sensor was deactivated using 1M ethanolamine. […] Concentration dependent kinetics were measured. […] All analytes were injected for 5 min association time and 10 min dissociation time at 100 μl/min flow rate. The sensor capture system was regenerated by a 3 min injection at 10 μl/min of 10 mM glycine pH 1.7. Where possible kinetic data was evaluated using the Biacore T200 evaluation software.
# [3] = biological target: T5, human HER1 Extracellular Domain (ECD) (human, UniProt P00533 25-645); experiment: SPR Biacore T200, antibody captured, 25 C
# T5 construct: also called Her1 ECD; HER1-ECD
# Description: as §1
# TtSlyDcas = biological target: T2, TtSlyDcas; experiment: SPR Biacore T200, antibody captured, 25 C
# Description: as §1
# [4] = biological target: T3, human HER4 Extracellular Domain (ECD); experiment: SPR Biacore T200, antibody captured, 25 C
# Description: as §1
# TtSlyDcys-Her3 = biological target: T4, TtSlyDcys-Her3; experiment: SPR Biacore T200, antibody captured, 25 C
# Description: as §1
# [5] = biological target: T6, human HER3 Extracellular Domain (ECD) (human, UniProt P21860 20-643); experiment: SPR Biacore T200, antibody captured, 25 C
# T6 construct: human recombinant, 68 kDa; 'closed' conformation without ligand; also called Her3 ECD; Her-3 ECD
# Description: as §1
# HER3 ECD-HRG complex = biological target: T7, HER3 ECD-HRG complex (human, UniProt P21860 20-643); experiment: SPR Biacore T200, antibody captured, 25 C
# T7 construct: HER3 ECD preincubated with a 3- to 6-fold molar excess of Heregulin ('open' conformation); biotinylated Her3-ECD in the ribosome display; also called HER3-ECD/HRG1β
# Description: as §1
binder,measurement,setting,value
"anti-HER3/HER4 antibody M-05-74 (antibody, V domains shown, murine monoclonal IgG from hybridoma (supernatant or purified), bivalent; also called M-074; M-5-74) VH: QVQLQQSGAELAKPGASVKMSCKTSGYTLTDYWIHWVKQRPGQGLEWIGYINPYTGYTESNQKFKDKATLTADKSSNTAYIQLSSLTSEDSAVYYCARPYYYGDYWGQGTTLTVSS VL: QIVLTQSPAIMSASPGERVTITCSASSSVSYMHWFQQKPGTSPKLLIYSTSNLASGVPARFSGSGSGTSYSLTISRMEAEDAATYYCQQRSSYPFTFGSGTKLEIK",ratio MR (+Heregulin)/MR (-Heregulin),HER4 ECD-HRG complex [1],6 fold
same,ratio ka (Her4-ECD-HRG)/ka (Her4-ECD),HER4 ECD-HRG complex [1],23.9 fold
same,Kd,HER4 ECD-HRG complex [2],8.1 nM
same,MR (Molar Ratio),HER4 ECD-HRG complex [2],0.8
same,koff,HER4 ECD-HRG complex [2],0.00081 s⁻¹
same,kon,HER4 ECD-HRG complex [2],99000 M⁻¹ s⁻¹
same,binding result,[3],no binding (tested: up to 90 nM)
same,MR (Molar Ratio),TtSlyDcas,0
same,binding result,TtSlyDcas,no binding (tested: up to 90 nM)
same,Kd,[4],51 nM
same,MR (Molar Ratio),[4],0.1
same,koff,[4],0.00082 s⁻¹
same,kon,[4],16000 M⁻¹ s⁻¹
same,Kd,TtSlyDcys-Her3,7.8 nM
same,MR (Molar Ratio),TtSlyDcys-Her3,1.9
same,koff,TtSlyDcys-Her3,0.00024 s⁻¹
same,kon,TtSlyDcys-Her3,30000 M⁻¹ s⁻¹
same,Kd,[5],1.1 nM
same,MR (Molar Ratio),[5],0.1
same,koff,[5],0.00011 s⁻¹
same,kon,[5],96000 M⁻¹ s⁻¹
same,Kd,HER3 ECD-HRG complex,2.8 nM
same,MR (Molar Ratio),HER3 ECD-HRG complex,0.8
same,koff,HER3 ECD-HRG complex,0.00029 s⁻¹
same,kon,HER3 ECD-HRG complex,100000 M⁻¹ s⁻¹
